Reference: patent publication US20250018053A1

Key:
Assay in all cases: flow cytometry, transfected CHO cells
Mouse N4 = molecular target: Mouse N4
Monkey N4 = molecular target: Monkey N4
Rat N4 = molecular target: Rat N4
Human N4 (human) = Human N4 (human) (UniProt Q96NY8)
Chain of Human N4 (human) (Q96NY8 32-510): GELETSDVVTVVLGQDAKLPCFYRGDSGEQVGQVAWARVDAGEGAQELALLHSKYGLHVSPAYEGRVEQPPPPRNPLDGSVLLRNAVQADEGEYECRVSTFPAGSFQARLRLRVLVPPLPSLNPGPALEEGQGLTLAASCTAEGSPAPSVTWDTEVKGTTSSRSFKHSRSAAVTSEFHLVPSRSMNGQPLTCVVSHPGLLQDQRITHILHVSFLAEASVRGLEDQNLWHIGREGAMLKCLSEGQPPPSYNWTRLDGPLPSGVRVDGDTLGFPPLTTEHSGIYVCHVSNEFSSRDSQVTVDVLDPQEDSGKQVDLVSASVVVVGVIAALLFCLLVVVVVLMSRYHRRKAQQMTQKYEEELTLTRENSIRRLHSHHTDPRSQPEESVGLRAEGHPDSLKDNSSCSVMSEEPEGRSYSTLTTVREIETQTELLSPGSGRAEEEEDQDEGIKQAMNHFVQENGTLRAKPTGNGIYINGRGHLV

EC50 (Mouse N4): 41.1 nM | EC50 (Monkey N4): 0.0678 nM | EC50 (Rat N4): 0.097 nM | EC50 (Human N4 (human)): 0.346 nM
Substance: Enfortumab (HA22)
